From US20110008302

What was measured:
[1] = biological target: T1, H3K36(me2) peptide ATGGV-K(me2)-KPHRY
T1 chain: ATGGVKKPHRY

[2] = biological target: T2, H3K4(me3) peptide ART-K(me3)-QTARKST
T2 chain: ARTKQTARKST

B1: bacterially expressed mouse Ndy1 fragment containing the JmjC, CXXC and PHD domains (aa 171-707) (protein)
chain: MWPQHLKEKQTEATNALAEMKYPKVKKYCLMSVKGCFTDFHIDFGGTSVWYHVFRGGKIFWLIPPTLHNLALYEEWVLSGKQSDIFLGDRVERCQRIELKQGYTFFIPSGWIHAVYTPVDSLVFGGNILHSFNVPMQLRIYEIEDRTRVQPKFRYPFYYEMCWYVLERYVYCVTQRSYLTQEYQRELMLIDAPRKTSVDGFSSDSWLDMEEESCEQQPQEEEEEEEDKEEEGDGADKTPKPPTDDPTSPTSTPPEDQDSTGKKPKAPAIRFLKRTLSNESEESVKSTSMPTDDPKTPTGSPATEVSTKWTHLTEFELKGLKALVEKLESLPENKKCVPEGIEDPQALLEGVKNVLKEHVDDDPTLAITGVPVVSWPKKTAKNRVVGRPKGKLGPASAVKLAANRTTAGARRRRTRCRKCEACLRTECGECHFCKDMKKFGGPGRMKQSCIMRQCIAPVLPHTAVCLVCGEAGKEDTVEEEEGKFNLMLMECSICNEIIHPGCLKIKESEGVVNDELPNCWECPKCNHAGKTGKQKRG
With B1 the “fluorescence coupled demethylation assay” value [1] was “shown to demethylate both H3K36me2 and H3K4me3 peptides, with high and low efficiencies respectively”, the “specific activity (ratio H3K36me2 versus H3K4me3 peptide)” value [1] was “about three times higher specific activity towards the H3K36me2 versus the H3K4me3 peptide” and the “fluorescence coupled demethylation assay” value [2] was “shown to demethylate both H3K36me2 and H3K4me3 peptides, with high and low efficiencies respectively”.

B2: 171-707 Ndy1 fragment containing the Y221A mutation (protein)
chain: MWPQHLKEKQTEATNALAEMKYPKVKKYCLMSVKGCFTDFHIDFGGTSVWAHVFRGGKIFWLIPPTLHNLALYEEWVLSGKQSDIFLGDRVERCQRIELKQGYTFFIPSGWIHAVYTPVDSLVFGGNILHSFNVPMQLRIYEIEDRTRVQPKFRYPFYYEMCWYVLERYVYCVTQRSYLTQEYQRELMLIDAPRKTSVDGFSSDSWLDMEEESCEQQPQEEEEEEEDKEEEGDGADKTPKPPTDDPTSPTSTPPEDQDSTGKKPKAPAIRFLKRTLSNESEESVKSTSMPTDDPKTPTGSPATEVSTKWTHLTEFELKGLKALVEKLESLPENKKCVPEGIEDPQALLEGVKNVLKEHVDDDPTLAITGVPVVSWPKKTAKNRVVGRPKGKLGPASAVKLAANRTTAGARRRRTRCRKCEACLRTECGECHFCKDMKKFGGPGRMKQSCIMRQCIAPVLPHTAVCLVCGEAGKEDTVEEEEGKFNLMLMECSICNEIIHPGCLKIKESEGVVNDELPNCWECPKCNHAGKTGKQKRG
For B2, the “fluorescence coupled demethylation assay” value [1] was “failed to demethylate either of the peptide substrates” and the “fluorescence coupled demethylation assay” value [2] was “failed to demethylate either of the peptide substrates”.
